The target of assay [1] is T1, human 2Ig-B7H3 (B7H3-2Ig-His) (human, UniProt Q5ZPR3 29-466).
T1 construct: Recombinant His-tagged protein immobilised on a CM5 chip; also called 21g-B7H3; B7H3-21g-His; not shown: His tag
T1 sequence: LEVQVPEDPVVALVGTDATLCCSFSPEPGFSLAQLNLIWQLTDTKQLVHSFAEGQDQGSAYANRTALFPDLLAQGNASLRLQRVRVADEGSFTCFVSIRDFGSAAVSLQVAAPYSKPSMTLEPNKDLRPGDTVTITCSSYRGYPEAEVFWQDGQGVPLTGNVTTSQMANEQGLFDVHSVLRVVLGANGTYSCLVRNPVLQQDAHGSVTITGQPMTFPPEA
Nature of the assay: SPR, Biacore T200, 2Ig-B7H3-His on CM5 chip, 1:1 fit; * beyond fitting limits. A general note: Surface plasmon resonance follows binding to a sensor surface in real time, without labels.

The target of assay [2] is T2, human 4Ig-B7H3 (B7H3-4Ig-His) (human, UniProt Q5ZPR3 29-466).
T2 construct: Recombinant His-tagged protein immobilised on a CM5 chip; also called 41g-B7H3; human 4Ig-B7-H3 (dominant isoform); not shown: His tag
T2 sequence: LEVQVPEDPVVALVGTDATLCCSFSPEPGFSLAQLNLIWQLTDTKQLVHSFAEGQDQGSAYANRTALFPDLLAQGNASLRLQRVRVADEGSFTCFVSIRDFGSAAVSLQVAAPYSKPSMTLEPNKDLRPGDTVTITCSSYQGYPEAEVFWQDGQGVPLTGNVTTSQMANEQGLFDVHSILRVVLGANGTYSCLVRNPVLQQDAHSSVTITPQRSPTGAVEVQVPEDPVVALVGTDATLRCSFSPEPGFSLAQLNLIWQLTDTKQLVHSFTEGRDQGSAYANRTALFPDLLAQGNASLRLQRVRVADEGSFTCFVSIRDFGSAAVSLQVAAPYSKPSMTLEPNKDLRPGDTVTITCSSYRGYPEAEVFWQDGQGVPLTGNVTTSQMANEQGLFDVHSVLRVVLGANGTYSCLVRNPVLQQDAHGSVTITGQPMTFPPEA
Nature of the assay: SPR, Biacore T200, 4Ig-B7H3-His on CM5 chip, 1:1 fit.

In assay [3] the target is T1, human 2Ig-B7H3 (B7H3-2Ig-His). Nature of the assay: SPR, Biacore T200, 2Ig-B7H3-His on CM5 chip, 1:1 fit.
The target is the same in assay [4]. The description is as above. The method, then:
(§1) Both human B7H3 41g and 21g proteins were dissolved in PBS (Phosphate-Buffered Saline) to make 0.1 mg/ml stock solution and stored in −80° C. B7-H3 proteins were immobilized onto the CM5 sensor chip using Amine Coupling Kit. Both proteins were diluted to 10 ug/ml with 10 mM Sodium acetate, pH 5.0. […] A blank immobilized surface was used as a control
(§2) Binding Assays: [0143] 1. Antibodies were diluted in HBS-EP buffer (10 mM HEPES, 150 mM NaCl, 3 mM EDTA, 0.05% Surfactant P20, pH 7.4) at varying concentrations (25-50-100-200-400 nM) prior to analysis. […] 2. Samples (60 ul) were injected over the sensor surface at a flow rate of 30 ul/min over 2 min. [0145] 3. Following completion of the association phase, dissociation was monitored in HBS-EP buffer for 10 min at the same flow rate. […] 4. At the end of each cycle, the surface was regenerated using 10 mM NaOH at a flow rate of 50 ul/min over 2×15 sec.
(§3) The data were analyzed by the 1:1 fitting model and default parameter setting for the rate constants using the Biacore T200 Evaluation Software, and the apparent association on rate constant (kon, ka), dissociation off rate constant (koff, kd) and equilibrium dissociation constant (KD=kd/ka) were calculated.
The source holds these as a separate data set.

In assay [5] the target is T2, human 4Ig-B7H3 (B7H3-4Ig-His). Put plainly: SPR, Biacore T200, 4Ig-B7H3-His on CM5 chip, 1:1 fit. The method, then: as §1, §2
This is another data set of the same source.

For assay [6] the target is unchanged. The assay is described as above. As for the experimental part:
as §1, §3
This is another data set of the same source.

Assay [7] has as its target T1, human 2Ig-B7H3 (B7H3-2Ig-His). Nature of the assay: SPR, Biacore T200, 2Ig-B7H3-His on CM5 chip, 1:1 fit. As for the experimental part:
as §1, §3
The source holds these as a separate data set.

For assay [8] the target is unchanged. Nature of the assay: SPR, Biacore T200, 2Ig-B7H3-His on CM5 chip, 1:1 fit; CHX-A''-DTPA conjugate, CAR 6.1, labeled with cold 175Lu. As for the experimental part:
as §1, §2

Assay [9] has as its target T2, human 4Ig-B7H3 (B7H3-4Ig-His). Put plainly: SPR. As for the experimental part: as §1, §3
The target of assay [10] is T1, human 2Ig-B7H3 (B7H3-2Ig-His). Nature of the assay: SPR. The method, then: as §1, §3
For assay [11] the target is unchanged. Put plainly: SPR, Biacore T200, 2Ig-B7H3-His on CM5 chip, 1:1 fit; CHX-A''-DTPA conjugate, CAR 3.6, unlabeled.
Assay [12] addresses T2, human 4Ig-B7H3 (B7H3-4Ig-His). Put plainly: SPR. As for the experimental part: as §1, §2
The source holds these as a separate data set.

Assay [13] addresses T1, human 2Ig-B7H3 (B7H3-2Ig-His). Nature of the assay: SPR. The method, then:
as §1, §2
The source holds these as a separate data set.

The target is the same in assay [14]. Nature of the assay: SPR; CHX-A''-DTPA conjugate, CAR 1.4, unlabeled.
For assay [15] the target is unchanged. Nature of the assay: SPR, Biacore T200, 2Ig-B7H3-His on CM5 chip, 1:1 fit; DOTA conjugate, CAR 6.3, labeled with cold 175Lu. The method, then: as §1, §2
For assay [16] the target is unchanged. Nature of the assay: SPR; CHX-A''-DTPA conjugate, CAR 0.6, unlabeled.

Positions count from the first letter of the chain named. Read-outs that look alike come from different tables or passages of the source.

What is called koff is the rate constant with which the complex falls apart. A high value points to a short-lived complex. Broadly, the Kd is the free concentration of one partner at which half of the binding sites on the other are occupied at equilibrium, for simple one-to-one binding. Low values mean higher affinity, high ones lower affinity. In general, kon refers to a measure of how fast the partners come together. A lower kon goes with slower complex formation. For 127I-Humanized-8H9-antibody, the koff in assay [1] was 7.66e-07 s⁻¹. Moreover, in assay [2], the Kd turned out to be 0.24 nM, the koff is 2.68e-05 s⁻¹, the kon came out at 112000 M⁻¹ s⁻¹ and the t ½ is 7.17 h. In assay [3], this molecule had a Kd of 0.00212 nM, a kon of 361000 M⁻¹ s⁻¹ and a t ½ of 251 h.

B1: 8H9 antibody conjugated with p-SCN-Bn-DOTA, CAR 0.8 (antibody, mouse IgG1, kappa, V domains shown)
VH: QVQLQQSGAELVKPGASVKLSCKASGYTFTNYDINWVRQRPEQGLEWIGWIFPGDGSTQYNEKFKGKATLTTDTSSSTAYMQLSRLTSEDSAVYFCARQTTATWFAYWGQGTLVTVSA
VL: DIVMTQSPATLSVTPGDRVSLSCRASQSISDYLHWYQQKSHESPRLLIKYASQSISGIPSRFSGSGSGSDFTLSINSVEPEDVGVYYCQNGHSFPLTFGAGTKLELKR
modifications: p-SCN-Bn-DOTA conjugated, CAR 0.8 per antibody; sites not stated
notes: Chelator conjugate, not metal-labelled
B1: in [4], the Kd is 0.166 nM and the “T ½” value came to 39.2 h. In [5], the Kd turned out to be 5.76 nM and the “t ½” value was determined as 1.67 h.

B2: 175Lu-DTPA-8H9-antibody (CAR6.1) (antibody, mouse IgG1, kappa, V domains shown)
VH: B1 VH
VL: B1 VL
modifications: p-SCN-Bn-CHX-A″-DTPA conjugated (CAR 6.1 per antibody), labelled with cold lutetium-175; sites not stated
As to B2, the values for the Kd in [6], in assay [8] and in assay [9] were 34 nM, 7.21 nM and 34 nM, respectively. In addition, the “t ½” value stood at 0.4 h in assay [6], 1.82 h in assay [7], 0.4 h in assay [9] and 1.82 h in assay [10].

B3: 8H9 antibody conjugated with p-SCN-Bn-CHX-A″-DTPA, CAR 3.6 (antibody, mouse IgG1, kappa, V domains shown)
VH: B1 VH
VL: B1 VL
modifications: p-SCN-Bn-CHX-A″-DTPA conjugated, CAR 3.6 per antibody; sites not stated
notes: as for B1
For the molecule B3, the “T ½” value in assay [4] came out at 1.25 h. In addition, the Kd in [11] was 9.46 nM; in assay [12] it was 26.9 nM; in assay [5], 26.9 nM. The figures for the t ½ in [12], in assay [13] and in assay [5] were 0.508 h, 1.25 h and 0.508 h, respectively.

B4: 175Lu-DOTA-8H9-antibody (CAR2.6) (antibody, mouse IgG1, kappa, V domains shown)
VH: B1 VH
VL: B1 VL
modifications: p-SCN-Bn-DOTA conjugated (CAR 2.6 per antibody), labelled with cold lutetium-175; sites not stated
Consider B4, for which, in [6], the Kd is 15.7 nM and the “t ½” value stood at 0.822 h. Also, in [7], the Kd came out at 1.74 nM and the “t ½” value is 6.11 h.

B5: 8H9 antibody conjugated with p-SCN-Bn-CHX-A″-DTPA, CAR 1.4 (antibody, mouse IgG1, kappa, V domains shown)
VH: B1 VH
VL: B1 VL
modifications: p-SCN-Bn-CHX-A″-DTPA conjugated, CAR 1.4 per antibody; sites not stated
notes: as for B1
On to B5, for which the Kd was determined as 1.93 nM in [4], 10 nM in assay [12], 10 nM in [5] and 1.93 nM in assay [14]. The “T ½” value in [4] is 3.94 h. Further, the t ½ in assay [12] worked out at 1.09 h; in assay [13], 3.94 h; in assay [5], 1.09 h.

B6: 8H9 antibody conjugated with p-SCN-Bn-DOTA, CAR 2.6 (antibody, mouse IgG1, kappa, V domains shown)
VH: B1 VH
VL: B1 VL
modifications: p-SCN-Bn-DOTA conjugated, CAR 2.6 per antibody; sites not stated
notes: as for B1
For B6, in [4], the Kd is 0.58 nM and the “T ½” value turned out to be 14 h. For the same molecule, in assay [5], the Kd was 7.57 nM and the “t ½” value is 1.42 h.

B7: 8H9 antibody conjugated with p-SCN-Bn-DOTA, CAR 7.5 (antibody, mouse IgG1, kappa, V domains shown)
VH: B1 VH
VL: B1 VL
modifications: p-SCN-Bn-DOTA conjugated, CAR 7.5 per antibody; sites not stated
notes: as for B1
For B7, in assay [4], the Kd stood at 1.71 nM and the “T ½” value is 6.58 h. Moreover, in assay [5], the Kd was 14.6 nM and the “t ½” value turned out to be 1.03 h.

B8: 175Lu-DOTA-8H9-antibody (CAR6.3) (antibody, mouse IgG1, kappa, V domains shown)
VH: B1 VH
VL: B1 VL
modifications: p-SCN-Bn-DOTA conjugated (CAR 6.3 per antibody), labelled with cold lutetium-175; sites not stated
Take B8: the Kd in assay [15] turned out to be 2.34 nM; in assay [6] it was 19.5 nM. Further, the “t ½” value was found to be 0.742 h in [6] and 5.39 h in [7].

B9: 8H9 antibody conjugated with p-SCN-Bn-DOTA, CAR 2.4 (antibody, mouse IgG1, kappa, V domains shown)
VH: B1 VH
VL: B1 VL
modifications: p-SCN-Bn-DOTA conjugated, CAR 2.4 per antibody; sites not stated
notes: as for B1
For B9, in [4], the Kd is 0.222 nM and the “T ½” value came to 41.1 h. Moreover, in [5], binding was put at a Kd of 8.61 nM and the “t ½” value was 1.4 h.

B10: hu8H9-3.1 (antibody, V domains shown)
VH: QVQLVQSGAEVVKPGASVKLSCKTSGYTFTNYDINWVRQRPGQGLEWIGWIFPGDDSTQYNEKFKGKATLTTDTSTSTAYMELSSLRSEDTAVYFCARQTTGTWFAYWGQGTLVTVSS
VL: B1 VL with D1E, T14S, D17E, S20T, H34Y, S60A, D70E, S74T, A100Q
As for B10, in assay [6], the affinity, expressed as Kd, was 8.87 nM; the koff turned out to be 0.000251 s⁻¹; the kon turned out to be 28300 M⁻¹ s⁻¹; the “t ½” value worked out at 0.769 h. In [7], binding was put at a Kd of 2.22 nM, the koff was found to be 0.000102 s⁻¹, the kon was found to be 45900 M⁻¹ s⁻¹ and the “t ½” value is 1.89 h.

B11: 8H9 antibody conjugated with p-SCN-Bn-CHX-A″-DTPA, CAR 0.6 (antibody, mouse IgG1, kappa, V domains shown)
VH: B1 VH
VL: B1 VL
modifications: p-SCN-Bn-CHX-A″-DTPA conjugated, CAR 0.6 per antibody; sites not stated
notes: Chelator conjugate, not metal-labelled; also called conj-CHX-A″-DTPA (CAR0.6)
In the case of B11, the Kd in assay [4] turned out to be 1.22 nM; in assay [12], 10.1 nM; in [5], 10.1 nM; in assay [16], 1.22 nM. Further, in assay [4], the “T ½” value amounted to 5.72 h. Besides, the t ½ in assay [12] was determined as 0.883 h; in assay [13], 5.72 h; in assay [5], 0.883 h.

For the origin of these results see patent US20230293738A1 (Y MABS THERAPEUTICS, published 2023).
